Key:
Type in all cases: cell-based
[1] = test system: firefly luciferase expression; assay: Firefly luciferase assay of HEK 293 cells transfected with U1_Gua riboswitch constructs, with or without guanine; settings: for fold increase of luciferase activity upon guanine treatment: 500 μM guanine
From the text: Plasmid constructs: The EGFP gene in pEGFP-C1 vector was replaced with firefly luciferase gene coding sequence to generate a pFLuc vector that contains an SV40 early polyadenylation signal sequence. Oligos containing either wild type or mutant U1 binding site from the 5′ splice site of human DHFR exon 2 and xpt-guanine aptamer sequence followed by the complementary sequence of the last 7 nt of the U1 site sequence were synthesized (IDT) and cloned into the pFLuc vector using the Gibson cloning strategy and kit (NEB).
Transfection and aptamer ligand treatment: HEK 293 cells were transfected as described in Example 1. Four hours after transfection, the media was aspirated, and new media with or without 500 μM guanine was added.
Firefly luciferase assay of cultured cells: Twenty-four hours after the media change, the plates were removed from the incubator, and equilibrated to RT for several minutes on a lab bench, then aspirated. Glo-lysis buffer (Promega, 100 uL, RT) was added, and the plates allowed to remain at RT for at least 5 minutes. Then, the well contents were mixed by 50 uL trituration, and 20 uL of each sample was mixed with 20 μL of bright-glo reagent (Promega) that had been diluted to 10% in glo-lysis buffer. The 96 wells were spaced on an opaque white 384-well plate. Following a 5 min incubation at RT, luminescence was measured using a Tecan machine with 500 mSec read time. The luciferase activity was expressed as mean relative light unit (RLU)±S.D.
Plasmid constructs: SV40 early polyadenylation sequence was replaced with human beta globin polyA sequence in pFLuc vector to generate pFLuc_HBGPA. Oligos containing either wild type or mutant U1 binding site from 5′ ss of human DHFR exon 2 and xpt-guanine aptamer sequence followed by the complementary sequence of last 7 nt of U1 site sequence were synthesized (IDT) and cloned into pFLuc_HBGPA vector using Gibson cloning strategy and kit (NEB).
Transfection and luciferase assay were as described in Example 7.

[2] = test system: Renilla luciferase expression; assay: Renilla luciferase assay of HEK 293 cells transfected with U1_theo riboswitch constructs, with or without theophylline
Protocol: Transfection: 3.5×10^4 HEK 293 cells were plated in a 96-well flat bottom plate the day before transfection. Plasmid DNA (500 ng) was added to a tube or a 96-well U-bottom plate. Separately, TransIT-293 reagent (Mirus; 1.4 μl) was added to 50 μl Opti-mem I media (Life Technologies), and allowed to sit for 5 minutes at room temperature (“RT”). Then, 50 μl of this diluted transfection reagent was added to the DNA, mixed, and incubated at RT for 20 min. Finally, 7 μl of this solution was added to a well of cells in the 96-well plate.
Renilla luciferase assay of cultured cells: 24 hours after the media change, plates were removed from the incubator, and equilibrated to RT for several minutes on a lab bench, and the media aspirated. Glo-lysis buffer (Promega, 100 μl, RT) was added, and the plates allowed to remain at room temp for at least 5 minutes. Then, the well contents were mixed by 50 μl trituration, and 20 μl of each well was mixed with 20 μl of Renilla-glo reagent in a solid-white 384-well plate. Ten minutes later, luminescence was measured using a Tecan machine with 500 msec read time. The luciferase activity was expressed as mean relative light unit (RLU)±SD.
Oligonucleotides containing either the full length of sequences of the stem from the stem-loop structure and theophylline aptamer or the truncated sequences of the stem, were synthesized (IDT) and cloned into pRL-SV40 vector using the Gibson Assembly Cloning Kit (NEB). Construct sequences were verified by DNA sequencing (Genewiz).
Transfection and aptamer ligand treatment: HEK 293 cells were transfected as described in Example 1. Four hours after transfection, the media was aspirated, and new media with or without 3 mM theophylline was added. A Renilla luciferase assay was performed 20 to 24 hours after theophylline treatment as described in Example 1. The induction fold was expressed as the quotient of luciferase activity obtained in the presence of aptamer ligand divided by the value obtained in the absence of the aptamer ligand.
Oligos containing 4 copies of the U1_theo_8_1 sequence in tandem were synthesized (IDT) and cloned using Gibson strategy and cloning kit (NEB). HEK 293 cells were transfected and Renilla luciferase assay was performed as described in Example 4.

[3] = test system: Renilla luciferase expression; assay: as above; remark: listed apart in the source

B1: wtU1_Gua_HBGPA: wild type U1 site with xpt-guanine aptamer in pFLuc_HBGPA (human beta globin polyA sequence) (nucleic acid)
DNA: TCATAAAGGCCAAGAAGGGCGGAAAGATCGCCGTGTAAGGATCCAAGCTTATCGATACCGTCGACCTCGAGGTAATGTATAATCGCGTGGATATGGCACGCAAGTTTCTACCGGGCACCGTAAATGTCCGACTACATTACGGCCCAGATCTAATTCACCCCACCAGTGCAGGCTGCCTATCAGAAAGTGGTGGCTGGTGTGGCTAATGCCCTGGCCCACAAGTATCACTAAGCTCGCTTTCTTGCTGTCCAATTTCTATTAAAGGTTCCTTTGTTCCCTAAGTCCAACTACTAAACTGGGGGATATTATGAAGGGCCTTGAGCATCTGGATTCTGCCTAATAAAAAACATTTATTTTCATTGCAATGATGTATTT
modifications: in pFLuc_HBGPA; wtU1_Gua_HBGPA
[1]; human beta globin polyA sequence (pFLuc_HBGPA)
  fold increase of luciferase activity upon guanine treatment: 2.1 fold

B2: mutU1_Gua_HBGPA: mutant U1 site with xpt-guanine aptamer in pFLuc_HBGPA (nucleic acid)
DNA: TCATAAAGGCCAAGAAGGGCGGAAAGATCGCCGTGTAAGGATCCAAGCTTATCGATACCGTCGACCTCGATGGAATCTATAATCGCGTGGATATGGCACGCAAGTTTCTACCGGGCACCGTAAATGTCCGACTACATTACGGCCCAGATCTAATTCACCCCACCAGTGCAGGCTGCCTATCAGAAAGTGGTGGCTGGTGTGGCTAATGCCCTGGCCCACAAGTATCACTAAGCTCGCTTTCTTGCTGTCCAATTTCTATTAAAGGTTCCTTTGTTCCCTAAGTCCAACTACTAAACTGGGGGATATTATGAAGGGCCTTGAGCATCTGGATTCTGCCTAATAAAAAACATTTATTTTCATTGCAATGATGTATTT
modifications: in pFLuc_HBGPA; mutU1_Gua_HBGPA
[1]; guanine vs untreated, human beta globin polyA sequence
  induction of luciferase activity upon guanine treatment (in words): didn't induce luciferase activity

B3: U1_Gua_3: U1 site linked with xpt-guanine aptamer, 74 nt upstream of SV40 early poly(A) in pFLuc (nucleic acid)
DNA: TCATAAAGGCCAAGAAGGGCGGAAAGATCGCCGTGTAAGCCATACCACATTTGTAGAGGTTTTACTTGCTTTAAAAAACCTCCCACACCTCCCCCTGAACCTGAAACATAAAATGAATGCAATTGTAAGGTAATGTATAATCGCGTGGATATGGCACGCAAGTTTCTACCGGGCACCGTAAATGTCCGACTACATTACTGTTGTTAACTTGTTTATTGCAGCTTATAATGGTTACAAATAAAGCAATAGCATCACAAATTTCACAAATAAAGCATTTTTTTCACTGCATTCTAGTTGTGGTTTGTCCAAACTCATCAATGTATCTTAA
modifications: in pFLuc; U1_Gua_3 wt in pFLuc
notes: U1 site linked with xpt-guanine aptamer, 74 nt upstream of SV40 early poly(A) in pFLuc
[1]; SV40 early poly(A) signal
  fold increase of luciferase activity upon guanine treatment: 1.7 fold

B4: U1_Gua_1: DHFR exon 2 5′ splice site U1 site linked with xpt-guanine aptamer, 149 nt upstream of SV40 early poly(A) in pFLuc (nucleic acid)
DNA: TCATAAAGGCCAAGAAGGGCGGAAAGATCGCCGTGTAAGCCATACCACATTAAGGTAATGTATAATCGCGTGGATATGGCACGCAAGTTTCTACCGGGCACCGTAAATGTCCGACTACATTACTGTAGAGGTTTTACTTGCTTTAAAAAACCTCCCACACCTCCCCCTGAACCTGAAACATAAAATGAATGCAATTGTTGTTGTTAACTTGTTTATTGCAGCTTATAATGGTTACAAATAAAGCAATAGCATCACAAATTTCACAAATAAAGCATTTTTTTCACTGCATTCTAGTTGTGGTTTGTCCAAACTCATCAATGTATCTTAA
modifications: in pFLuc; U1_Gua_1 wt in pFLuc
notes: DHFR exon 2 5′ splice site U1 site linked with xpt-guanine aptamer, 149 nt upstream of SV40 early poly(A) in pFLuc
[1]; SV40 early poly(A) signal
  fold increase of luciferase activity upon guanine treatment: 2.4 fold

B5: U1_Gua_2: U1 site linked with xpt-guanine aptamer, 110 nt upstream of SV40 early poly(A) in pFLuc (nucleic acid)
DNA: TCATAAAGGCCAAGAAGGGCGGAAAGATCGCCGTGTAAGCCATACCACATTTGTAGAGGTTTTACTTGCTTTAAAAAACCTCCCACACCTAAGGTAATGTATAATCGCGTGGATATGGCACGCAAGTTTCTACCGGGCACCGTAAATGTCCGACTACATTACCCCCCTGAACCTGAAACATAAAATGAATGCAATTGTTGTTGTTAACTTGTTTATTGCAGCTTATAATGGTTACAAATAAAGCAATAGCATCACAAATTTCACAAATAAAGCATTTTTTTCACTGCATTCTAGTTGTGGTTTGTCCAAACTCATCAATGTATCTTAA
modifications: in pFLuc; U1_Gua_2 wt in pFLuc
notes: U1 site linked with xpt-guanine aptamer, 110 nt upstream of SV40 early poly(A) in pFLuc
[1]; SV40 early poly(A) signal
  fold increase of luciferase activity upon guanine treatment: 2.0 fold

B6: 4 copies of U1-theo_8_1: 4 copies of the U1_theo_8_1 sequence in tandem in the 3′ UTR of pRL-SV40 (nucleic acid)
DNA: TCAAATCGTTCGTTGAGCGAGTTCTCAAAAATGAACAATAATTCTAGAGCGGCCGCTTCGAGCAGACATGATAAGATACATTGATGAGTTTGGACAAACCAAACCCAGGTAAGTGATACCAGCCGAAAGGCCCTTGGCAGCACTTACCTGGACAACTAGAATGCAGTGAAAAAAGAGTTTGGACAAACCAAACCCAGGTAAGTGATACCAGCCGAAAGGCCCTTGGCAGCACTTACCTGGACAACTAGAATGCAGTGAAAAAAATGCGAGTTTGGACAAACCAAACCCAGGTAAGTGATACCAGCCGAAAGGCCCTTGGCAGCACTTACCTGGACAACTAGAATGCAGTGAAAAAAATGCTTTATTTGTGAGAGTTTGGACAAACCAAACCCAGGTAAGTGATACCAGCCGAAAGGCCCTTGGCAGCACTTACCTGGACAACTAGAATGCAGTGAAAAAAATGCTTTATTTGTGAAATTTGTGATGCTATTGCTTTATTTGTAACCATTATAAGCTGCAATAAACAAGTTAACAACAAC
modifications: in pRL-SV40 3′ UTR; 4xU1_theo_8_1 in pRL-SV40
[2]; no theophylline
  reduction of basal level expression compared to single copy of U1_theo_8_1: 83%
[2]; with vs without theophylline
  change of luciferase activity after theophylline treatment (in words): increased the luciferase activity in a dose-dependent manner
[3]; 6 mM theophylline
  maximal induction fold of luciferase activity: 4.3 fold
[3]; upon theophylline treatment, maximal at 6 mM
  luciferase activity relative to 87-9 SL control vector: 40%

From patent publication US11697815B2, “Regulation of gene expression through aptamer-modulated polyadenylation” (MeiraGTx UK II Limited, priority 2016, dated 2023)
